Data: US20060240053

Substance	autocleavage in acetate buffer pH 4.5, SDS-PAGE over time
GST-SASPase C27 mutant E/D (aspartic acid No. 212 substituted to glutamic acid)	The mutated forms (A/D) and (E/D), for their part, do not autoactivate
GST-SASPase C27 mutant A/D (aspartic acid No. 212 substituted to alanine)	The mutated forms (A/D) and (E/D), for their part, do not autoactivate
